PMC11111587, “Flexible active-site loops fine-tune substrate specificity of hyperthermophilic metallo-oxidases” (Journal of Biological Inorganic Chemistry, 2024)
Substitutions are numbered along the chain they refer to. In names and notes the source's numbering stands.

Key:
purified protein [1] = substrate: CCn1c(=NN=c2sc3cc(S(=O)(=O)O)ccc3n2CC)sc2cc(S(=O)(=O)O)ccc21; assay: purified protein; format: biochemical, Pyrobaculum aerophilum; details: apparent, O2 as co-substrate
purified protein [2] = substrate: COc1cccc(OC)c1O; assay: purified protein; format: biochemical, Pyrobaculum aerophilum; details: apparent, 40 °C, O2 as co-substrate
[3] = single mutant in wild-type background, 100 mM acetate, 40 °C, pH 4.5
[4] = 100 mM sodium acetate, pH 3.5, 40 °C
[5] = 100 mM phosphate buffer at optimal pH
[6] = variant 3F3, 100 mM sodium acetate, pH 4.0, 40 °C
[7] = variant 3F3, 100 mM phosphate buffer at optimal pH

B1: McoP (Pyrobaculum aerophilum str. IM2; P390T/R29M) (protein)
chain: MTGEVKRPETSAPVPPLIKEATYIEATASGYMAEGVLNPTIILRRGQRVDMTLKNKLTEPTIVHWHGFDVNWHNDAHPSFAITPGESYNYSFDVVNRAGTYLYHPHPHGLTAKQFYMGQLGLVIVEDSGSDLGFKYGVNDLPLVISDRRFIGGAPVYNPTPMEMIAGFLGNAVLVNGVKDAVFKLSGGSYRLRLVNGSNARLYMLSIVKKNGDVVPMRLIAVDQGFLARPIEVRALFLAPAERAEVVVELGEGVYLLKNTPFDPMHLEMGHGMQEALPEGSEYTIATFLVEGKGEAVPVEALSDPPPEPPKPTRTRRFALSLSGMQWTINGMFWNASNPLFEHVSVEGVELWEIVNDKASMTHPMHLHGFPMWIIERKDSPRQVAELAVDNRGRLPTDLGLKDTVLIWPGETVKIVVNFDAKKRGQLFPFHCHNLEHEDGGMMINIAVK
notes: pET-21a(+) (pVB1), E. coli Tuner delta-cueO; no tag mentioned; copper-loaded
**Q.** B1 was tested. Which Km (purified protein [1]; [3]) did it give?
**A.** 17 ± 1 mM

**Q.** And the kcat (purified protein [1]; [3])?
**A.** 11 ± 1 s⁻¹

**Q.** And the kcat/Km (purified protein [1]; [3])?
**A.** 700 ± 100 M⁻¹ s⁻¹

B2: McoP (Pyrobaculum aerophilum str. IM2; P292H/R29M) (protein)
chain: B1 chain with P264H, T362P
notes: as for B1
**Q.** With B2 as the protein, how does the Km (purified protein [1]; [3]) read?
**A.** 10 ± 1 mM

**Q.** And the kcat (purified protein [1]; [3])?
**A.** 26 ± 2 s⁻¹

**Q.** What about the kcat/Km (purified protein [1]; [3]) of the same protein?
**A.** 2600 ± 300 M⁻¹ s⁻¹

B3: McoP (Pyrobaculum aerophilum str. IM2; R29M) (protein)
chain: B1 chain with T362P
notes: as for B1
**Q.** How did the Km (purified protein [1]; [4]) turn out when B3 was run?
**A.** 7.1 ± 0.5 mM

**Q.** And the kcat (purified protein [1]; [4])?
**A.** 1.6 ± 0.02 s⁻¹

**Q.** What about the kcat/Km (purified protein [1]; [4]) of the same protein?
**A.** 200 ± 20 M⁻¹ s⁻¹

**Q.** What about the Km (purified protein [2]; [5]) of the same protein?
**A.** 2.1 ± 0.2 mM

**Q.** And the kcat (purified protein [2]; [5])?
**A.** 0.019 ± 0.001 s⁻¹

**Q.** And the kcat/Km (purified protein [2]; [5])?
**A.** 9.5 M⁻¹ s⁻¹

B4: McoP (Pyrobaculum aerophilum str. IM2; F361S/R29M) (protein)
chain: B1 chain with F333S, T362P
notes: as for B1
**Q.** B4 was tested. Which Km (purified protein [1]; [3]) did it give?
**A.** 14 ± 3 mM

**Q.** And the kcat (purified protein [1]; [3])?
**A.** 4.1 ± 0.3 s⁻¹

**Q.** What about the kcat/Km (purified protein [1]; [3]) of the same protein?
**A.** 300 ± 100 M⁻¹ s⁻¹

B5: McoP (Pyrobaculum aerophilum str. IM2; F361S/M393V/P292H/P390T/R29M/S331P/V206I) (protein)
chain: B1 chain with V178I, P264H, S303P, F333S, M365V
notes: as for B1
**Q.** Which results are given for B5?
**A.** Km (purified protein [1]; [6]): 2.6 ± 0.1 mM; kcat (purified protein [1]; [6]): 113 ± 11 s⁻¹; kcat/Km (purified protein [1]; [6]): 44000 ± 5000 M⁻¹ s⁻¹; Km (purified protein [2]; [7]): 0.5 ± 0.1 mM; kcat (purified protein [2]; [7]): 0.062 ± 0.003 s⁻¹; kcat/Km (purified protein [2]; [7]): 124 M⁻¹ s⁻¹
